Data set [1] relates to dogs with naturally-occurring invasive urothelial carcinoma (iUC). As to the kind of experiment: Phase I dose escalation: safety, tolerability, MTD (VCOG-CTCAE). It is filed as in vivo, dog. The procedure: (§1) […] […] The 10 pet dogs in the pilot study included six neutered male dogs and four spayed female dogs of a variety of breeds and weighing between 5 and 46 kg.
(§2) Dogs in dosage cohorts were enrolled using a 3+3 trial design. Inter-patient and intra-patient dose escalation was permitted. Drug tolerability was assessed by owner questionnaire, physical exam, CBC the day of treatment and seven days following treatment, and biochemistry panel at four-week intervals. Toxicity was graded using VCOG-CTCAE criteria. The EC0531 dose was increased by 0.02 mg/kg in each subsequent dose cohort if no dose limiting toxicity (DLT) was recorded. DLT was defined as an adverse event (AE) > grade 2. When a grade 3 AE occurred, the cohort was expanded to at least six dogs including six new dogs, i.e. six dogs that had not received prior EC0531 at lower doses. If more than one grade 3 AE or any grade 4 or 5 AE occurred, then six dogs were enrolled at the previous cohort. The MTD was defined as the highest dose tolerated by six dogs with no more than one grade 3 AE and no grade 4–5 AE. Intra-patient dose escalation was permitted if no AEs had occurred after two doses of the drug had been administered.
(§3) In individual dogs, the EC0531 dose was reduced by 10% if grade 2 toxicity was noted, and by 20% if grade 3 or higher toxicity was noted. Treatment was delayed by one week if the neutrophil count was <3,000/mm^3 or platelet count <100,000/mm^3 the day treatment was due.

Assay in data set [2]: as above
It is filed as in vivo, dog. The conditions noted are these: dog, in vivo; intravenous, every two weeks; dogs with iUC; read-out: maximum tolerated dose (MTD). The procedure: as §1, §2, §3

Several values for one entry are separate records, joined by “and”; a condition that tells them apart may be missing. Identical values can stand only once. Entries after “also recorded” stand apart in the source; their conditions may differ. Marks after values point to notes of the source that are not given here.

The term MTD denotes the largest dose that counted as tolerated. As for `CCCC(=O)OCN(C(=O)[C@@H](NC(=O)[C@H]1CCCCN1C)[C@@H](C)CC)[C@H](C[C@@H](OC(C)=O)c1nc(C(=O)N[C@@H](Cc2ccc(O)cc2)C[C@H](C)C(=O)NNC(=O)OCCSSC[C@H](NC(=O)[C@H](CCC(=O)NC[C@H](O)[C@@H](O)[C@H](O)[C@H](O)CO)NC(=O)CC[C@H](NC(=O)[C@H](CCC(=O)NC[C@H](O)[C@@H](O)[C@H](O)[C@H](O)CO)NC(=O)CC[C@H](NC(=O)[C@H](CCC(=O)NC[C@H](O)[C@@H](O)[C@H](O)[C@H](O)CO)NC(=O)CC[C@H](NC(=O)c2ccc(NCc3cnc4nc(N)[nH]c(=O)c4n3)cc2)C(=O)O)C(=O)O)C(=O)O)C(=O)O)cs1)C(C)C` [EC0531], the “tolerability of treatment at the MTD” value in data set [1] (0.26 mg/kg every two weeks) was “well tolerated”. The “withdrawal from the study due to AE / toxicity” value in data set [1] (28 dogs) is on record as “No dog withdrew; also recorded: no dogs were removed”. Besides, the toxicity noted entry in data set [1] (28 dogs, 311 doses) was “neutropenia, anorexia, or lethargy”. In addition, the overall tolerability entry in data set [1] (28 dogs, total of 311 doses) is “generally well tolerated”. In addition, the infusion reaction result in data set [1] (a single dog, transient) is “hypotension, compensatory tachycardia, and subsequent syncopal episode”. Besides, the “Adverse events defined by VCOG-CTCAE” value was 1 dog with G1 vomiting^a 1 dog with G1lethargy and G3 weight loss (DLT)^a 1 dog with G4 neutropenia (DLT)^b 1 dog with G4 infusion reaction (DLT)^b in data set [1] (dose 0.28 mg/kg, 10 dogs, 63 doses); “G3 anorexia and 1 dog with G3 anorexia (DLT)” in data set [1] (dose 0.34 mg/kg, 1 dog, 5 doses); 1 dog with G1 anorexia in data set [1] (dose 0.18 (mg/kg), 1 dog, 6 doses); 1 dog with G2 anorexia in data set [1] (dose 0.20 (mg/kg), 4 dogs, 14 doses); 1 dog with G1 lethargy in data set [1] (dose 0.22 (mg/kg), 4 dogs, 10 doses); 1 dog with G2 neutropenia in data set [1] (dose 0.24 (mg/kg), 4 dogs, 16 doses). For the same compound, the “Adverse events defined by VCOG-CTCAE” value in data set [1] (dose 0.26 (mg/kg), 6 dogs, 33 doses) was 1 dog with G1 lethargy 1 dog with G1 vomiting and G1 neutropenia 1 dog with G2 neutropenia 1 dog with G3 neutropenia (DLT) and G2 diarrhea; in data set [1] (dose 0.30 (mg/kg), 2 dogs, 15 doses), 1 dog with G3 neutropenia (DLT); in data set [1] (dose 0.32 (mg/kg), 1 dog, 2 doses) it was “No adverse events observed”. The “toxicity observed at doses higher than the MTD” value in data set [1] (doses above 0.26 mg/kg every two weeks) is “grade 3-4 neutropenia and gastrointestinal toxicity”. In addition, in data set [1] (one dog, heavily pretreated with chemotherapy, chronically low platelet counts), the thrombocytopenia result is “grade 2 thrombocytopenia”. In data set [1] (pilot study in pet dogs), the “outcome of weekly dose interval” value is reported as “suspended due to neutropenia”. Moreover, in data set [1] (pilot study in pet dogs with iUC, n = 10 dogs), the neutrophil nadir entry is recorded as “four to seven days after treatment”. The “outcome of twice weekly dosing” value in data set [1] (pilot study in pet dogs, dosing not continued) is “dose limiting-neutropenia and anorexia”. Further, the maximum tolerated dose (MTD) in data set [2] was 0.26 mg/kg.

The record behind these values is PMC6319348, “Phase I/II clinical trial of the targeted chemotherapeutic drug, folate-tubulysin, in dogs with naturally-occurring invasive urothelial carcinoma” (Oncotarget, 2018).
